According to US8680241B2 (priority 2009, dated 2014):
Entries after “also recorded” stand apart in the source; their conditions may differ. Read-outs that look alike come from different tables or passages of the source.

Columns and labels:
[1] = tested on: Lewis rats with adjuvant-induced arthritis; details: rat, in vivo
[2] = tested on: Balb/C mice with TNBS colitis; assay type: in vivo, mouse; details: for TNBS-induced weight loss: Example 15, 8 mg/kg after sensitization and on day 1, day 3, PBS treated animals 15%, FIG. 24
Description: Balb/C mice were sensitized with 160 μL of the haptenizing agent TNBS (Sigma-Aldrich, St. Louis, Mo.) at a concentration of 2.5% in 50% ethanol by skin painting. A week later, 120 μl of 1% TNBS in 50% ethanol was administered intrarectally via a 3.5-French catheter. Mice were sacrificed 3 days after intrarectal TNBS administration. Animals were weighed at the time of sensitization, intrarectal administration and every day following such until sacrifice. Clinical assessment was carried out by evaluating weight loss and histopathology of the colon tissue post mortem.
Tissues were fixed in phosphate buffered saline containing 4% formalin and embedded in paraffin. Sections (5 μm) were stained with haematoxylin and eosin. The degree of inflammation was assessed by a blinded pathologist using the following scoring system from 0-4: 0, no signs of inflammation; 1, low level of leucocyte infiltration; 2, moderate level of leucocyte infiltration; 3, high level of leucocyte infiltration, high vascular density, thickening of bowel wall; 4, transmural infiltrations, loss of goblet cells, high vascular density, strong bowel wall thickening, edema.
Twenty Balb/C mice were sensitized via TNBS skin-painting (designated day −7), followed by intrarectal administration of TNBS a week later (designated day 0). The humanized VH2/VK3 antibody (200 μg) was administered at three time points (−6, −2, +1) via i.p. injection to treated animals which were compared with untreated control animals. All the animals were weighed at the time of sensitization, intrarectal administration and every day following such. The animals were sacrificed three days following intrarectal administration (designated +3) following significant weight loss (>5%) in the control group and the colon tissue was removed and sent for histopathological analysis.
Balb/C mice were sensitized via TNBS skin-painting (Day −7), followed by intrarectal administration of TNBS a week later (designated as day 0). The VH2/VK3 variant (8 mg/kg), Rituximab (8 mg/kg) or PBS, were administered following sensitization and on day 1 following intrarectal induction. The mice were weighed at the time of sensitization, intrarectal administration and every day following such. The animals were sacrificed 3 days following intrarectal administration (Day 3) following significant weight loss in the control groups.

human PBMC = assay type: cell-based
[3] = tested on: human macrophages (CD14+ cells); assay type: cell-based; details: FITC conjugated, 10 μg; double stained with anti-CD14; FIGS. 12, 16
[4] = target: T1, adenylyl cyclase-associated protein 1 (CAP1) (Homo sapiens, UniProt Q01518); test: Western blot on over-expressed His-tagged CAP1; assay type: binding; details: control His CREB; FIG. 13
T1 construct: made in house; host or cells: E. coli BL21 (modified pET22b vector; cDNA from THP-1 cells)
T1 sequence (Q01518 whole entry): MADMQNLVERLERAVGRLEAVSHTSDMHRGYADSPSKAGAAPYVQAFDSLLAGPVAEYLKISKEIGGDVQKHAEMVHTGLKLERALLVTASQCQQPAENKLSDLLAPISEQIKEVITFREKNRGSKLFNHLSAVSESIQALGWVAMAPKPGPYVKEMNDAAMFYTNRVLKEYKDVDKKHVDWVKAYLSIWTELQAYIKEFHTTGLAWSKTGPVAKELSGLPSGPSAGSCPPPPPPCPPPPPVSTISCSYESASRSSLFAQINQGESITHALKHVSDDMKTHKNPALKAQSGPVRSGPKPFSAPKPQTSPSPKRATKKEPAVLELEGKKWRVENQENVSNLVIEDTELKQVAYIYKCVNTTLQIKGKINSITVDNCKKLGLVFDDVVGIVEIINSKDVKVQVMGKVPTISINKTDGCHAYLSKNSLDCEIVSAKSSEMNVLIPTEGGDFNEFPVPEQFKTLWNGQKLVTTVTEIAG

[5] = tested on: Lewis rats with adjuvant-induced arthritis; assay type: in vivo, rat; details: IP 1 mg/kg days 11 and 15, serum day 19, FIG. 19
Description: Evaluation of cytokine levels in cell culture or in the serum of animals was carried out utilizing specific kits from R&D SYSTEMS, Minneapolis Minn. USA (according to the manufacturer's instructions).
The inventors furthermore evaluated the in vivo effects of the humanized anti-peptide-6 antibody on the induction of IL-10 secretion in the serum of animals having established arthritis. Lewis rats were immunized with MT/CFA on day 0. Rats were treated on days 11 and 15 with humanized VH2/VK3 (IP 1 mg/kg), or with PBS for comparison. Severity of arthritis was evaluated by clinical scoring, and animals were sacrificed on day 19 and serum levels of various cytokines were measured by ELISA (R&D systems). Serum of healthy untreated animals served as a control.

[6] = tested on: DBA/1 mice with collagen-induced arthritis; assay type: in vivo, mouse; details: single dose i.p. 200 μg upon clinical signs; vs TBS; FIG. 20
Description: Nine week old male DBA/1 mice (Harlan Laboratories, Israel) were injected s.c. at the base of the tail with 200 μg collagen type II emulsified in CFA (Difco). Three weeks later mice were boosted s.c. with the same concentration of collagen II. The severity of arthritis was assessed daily by measuring feet diameter of hind and fore paws by caliper by a blinded observer. As controls, the inventors measured 4 mice of about the same age that were not injected with collagen. The mean of the healthy mice served as a “cut-off” measurement. Starting from day 5 after the boost injection, every mouse with a score value above the average of the healthy mice (in one paw or more) was assigned to one of the treatment groups.
The inventors next examined the in vivo effects of the humanized VH2/VK3 anti-peptide-6 antibody in an additional experimental model of arthritis, the Collagen-Induced Arthritis (CIA) model in mice. Male DBA/1 mice were immunized on day 0 with collagen type II emulsified in CFA to induce arthritis, and a boost dose given on day 21.85% of the mice developed CIA within 2.5 weeks after the boost injection. Upon clinical signs of disease, the mice were treated with a single dose of either the humanized VH2/VK3 anti-peptide-6 antibody (i.p. 200 μg) or tris buffered saline (TBS).

[7] = tested on: PBMC collected from rheumatoid arthritis (RA) patients; assay type: cell-based, human; details: 200 μg, 48 hours, two RA patients, vs without antibody; FIG. 21
Description: PBMC were collected from two RA patients and incubated for 48 hours with or without 200 μg of the humanized anti-peptide-6 antibody (VH2/VK3). Supernatants were then assayed for secreted IL-10 content.

Balb/C mice = details: mouse, in vivo
[8] = 11-day period, FIG. 25

## Rituximab
[1]
  pathology findings of joints: marked fibrosis and formation of reactive periosteal bone
[1]; ip, 5 mg/kg
  severity of AA (arthritis score): no effect on AA
[2]
  TNBS-induced weight loss: 14%

B1: VH2/VK3: humanized anti-peptide-6 IgG1; heavy chain variable region SEQ ID NO: 21, light chain variable region SEQ ID NO: 26 (antibody, V domains shown)
VH: QVTLKESGPALVKPTQTLTLTCSFSGFSLSTSNMGVGWIRQPAGKGLEWLLHILWNDSKYYNPALKSRLTISKDTYKNQVVLTMTNMDPVDTATYYCARMGGYYGNYGYYAMDYWGQGTLVTVSS
VL: QIVLTQSPATLSLSPGERATLSCTASSSVSSSYLHWYQQKPGKAPKLWIYSTSNLASGVPSRFSGSGSGTDYTLTISSLQPEDFATYYCHQYHRSPPTFGQGTKLEIK
modifications: IgG1 constant regions; VH2 amino acid sequence; VK3 amino acid sequence
Human PBMC
  IL-10 induction in PBMC cultures: best IL-10 induction; also recorded: induced higher IL-10 expression than the other variants
  IL-10 secreted from human PBMC: significant increase in IL-10 secreted
[1]; ip, 2.5 mg/kg
  severity of established AA (arthritis score): effective in significantly suppressing the severity of established AA
[3]
  binding to CD14 positive cells (FACS): binds to most of the CD14 positive cells
[4]
  recognition of His-tagged CAP1 (Western blot): recognized the His-tagged CAP1 protein specifically
[5]; 1 rat per group
  serum IL-1 levels: remain negligible in all groups
  serum IL-17 levels: remain negligible in all groups
  serum TNFα levels: remain negligible in all groups
[5]
  serum IL-4 levels: remain negligible in all groups
[5]; vs PBS
  serum IFN-γ levels: reduction
  serum IL-6 levels: reduction
  serum IL-10 levels: clear induction of IL-10 levels
[6]
  severity of established CIA (feet diameter): effective in significantly suppressing the severity of established CIA
[7]
  IL-10 secreted by RA patients' PBMC: robust increase in the amount of IL-10 secreted
[2]; Example 14, 200 μg i.p. at days -6, -2, +1, sacrifice day 3, p<0.05 vs control, FIG. 23
  inflammatory response in the colon (microscopic disease score, histology): Minimal inflammatory response
[2]; Example 14, 200 μg i.p. at days -6, -2, +1, vs untreated control, FIG. 22
  weight loss in TNBS colitis: effective in suppressing the weight loss
[2]
  TNBS-induced weight loss: 3.5%
Balb/C mice
  pathological findings (heart, liver, lung, spleen, kidney): no significant pathological findings
[8]; 500 μg i.p. on day 0
  serum half-life: approximately 10 days
[8]; 500 μg s.c. on day 0
  serum half-life: approximately 10 days
